Assay results as given in patent US20110294135, “COMPOSITIONS AND METHODS FOR ANALYTE DETECTION AND QUANTITATION” (BioDesic, LLC, published 2011).

Columns and labels:
[1] = molecular target: T1, LG-268-NRE (Protein LG fused to Zif268-NRE six-finger zinc finger protein) (Artificial Sequence); assay: EMSA; 0.03 mM protein, Tris-glycine, room temp 15-60 min, 4-20% acrylamide gel, SYBR Gold; detector complex visible, further shifted by bovine IgG; details: tags: C-terminal His tag (pET20b(+)); N-terminal Protein LG fusion
Procedure: Stock solutions of LG-268-NRE (0.1 mM), the DNA detection moiety (500 ng/μl for a 50-mer and 1 μg/μl for an 80- or 100-mers), the target analytes (Bovine IgG antibodies (Equitech Bio, B60-0010; Final concentration of 1 mg/ml), and loading buffer (Jule Tris-Glycine running buffer; Jule Inc.; Catalog Number: TGNRB10X) were combined at the same time and mixed in a microfuge tube in a final reaction volume of 75 μl. Final concentrations were as follows: 0.03 mM for LG-268-NRE, 100 ng/75 μl for the 50-mer, and 10 μg/75 μl for the 80- or 100-mers. The combined mixture was then allowed to sit for 15-60 minutes at room temperature (approximately 20-22° C.). Appropriate volumes of the controls and the mixed solution were then loaded into wells of acrylamide (50 μl) or agarose gels (75 μl) and run as described below. The agarose gels and the staining buffer are made with Jule Tris-Glycine running buffer (Jule Inc.; Catalog Number: TGNRB10X). The binding reactions are also performed with a range of protein concentrations and/or in the presence of salt, e.g., 50-100 mM KCl or NaCl. Molecular weight standards were: Bioline Hyperladder 1: BIO-33053; Hyperladder 2: BIO-33054; and Hyperladder 3: BIO-33055.

[2] = molecular target: T1, LG-268-NRE (Protein LG fused to …); assay: EMSA; 0.03 mM protein, Tris-glycine, room temp 15-60 min, SYBR Gold; detector complex visible, further shifted by bovine IgG; details: tags: C-terminal His tag (pET20b(+)); N-terminal Protein LG fusion

Binder	binding result [1]	binding result [2]
80-mer DNA detection moiety (dsDNA) DNA 1: TTTTGGGGTTGATAGAAAAGATAGAGGGTATAGTGAGTCGTATTAATTTCAGAATTCATTTCAAGGGTTCAGCGTGGGCG DNA 2: CGCCCACGCTGAACCCTTGAAATGAATTCTGAAATTAATACGACTCACTATACCCTCTATCTTTTCTATCAACCCCAAAA	binds	
100-mer DNA detection moiety (dsDNA) DNA 1: CCCACTTCATTGTGCCAAAGTTTTGGGGTTGATAGAAAAGATAGAGGGTATAGTGAGTCGTATTAATTTCAGAATTCATTTCAAGGGTTCAGCGTGGGCG DNA 2: CGCCCACGCTGAACCCTTGAAATGAATTCTGAAATTAATACGACTCACTATACCCTCTATCTTTTCTATCAACCCCAAAACTTTGGCACAATGAAGTGGG		binds
